According to patent US20230365705A1 (DYNAMICURE BIOTECHNOLOGY, published 2023):
Several values for one entry are separate records, joined by “and”; a condition that tells them apart may be missing. Identical values can stand only once. Values belong to the binder of their own block, whether it stands above or below them.

Key:
[1] = target: T1, Human CD93 on cells (human CD93 expressing CHO cells; HUVEC, U937 and KG1a cells) (human, UniProt Q9NPY3 22-652); assay: flow cytometry, CHO cells overexpressing human CD93, antibody 0.01ug, mIgG1 as control, APC-A
T1 construct: whole, on cells; also called hCD93 expressing CHO cells; hCD93 CHO cells
T1 sequence (looked up): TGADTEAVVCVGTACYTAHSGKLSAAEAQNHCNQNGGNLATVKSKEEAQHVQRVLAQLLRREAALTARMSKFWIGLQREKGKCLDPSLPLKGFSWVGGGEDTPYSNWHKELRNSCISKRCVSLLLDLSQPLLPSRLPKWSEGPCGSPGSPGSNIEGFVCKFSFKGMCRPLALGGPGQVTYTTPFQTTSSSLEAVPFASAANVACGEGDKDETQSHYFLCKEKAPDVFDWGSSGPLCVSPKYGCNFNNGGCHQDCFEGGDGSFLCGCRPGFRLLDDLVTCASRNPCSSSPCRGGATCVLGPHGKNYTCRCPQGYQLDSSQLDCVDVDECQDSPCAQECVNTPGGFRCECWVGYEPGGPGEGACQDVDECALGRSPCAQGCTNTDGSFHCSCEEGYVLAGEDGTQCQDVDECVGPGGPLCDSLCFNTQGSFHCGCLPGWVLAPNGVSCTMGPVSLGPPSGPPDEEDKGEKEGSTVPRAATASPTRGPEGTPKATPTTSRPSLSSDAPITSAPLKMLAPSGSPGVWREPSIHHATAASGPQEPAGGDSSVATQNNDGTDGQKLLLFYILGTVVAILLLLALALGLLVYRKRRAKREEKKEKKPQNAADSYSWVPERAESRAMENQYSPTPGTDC

[2] = target: T2, Human CD93 recombinant protein (Sino Biological Inc, Catalog #12589-H08H) (human, UniProt Q9NPY3 22-580); assay: ELISA, His-tagged human CD93 coated, OD450
T2 construct: Biotinylated (EZ-LINK NHS-PEG4 biotin) in the BLI assays; also called hCD93; His-tagged human CD93
T2 sequence (looked up): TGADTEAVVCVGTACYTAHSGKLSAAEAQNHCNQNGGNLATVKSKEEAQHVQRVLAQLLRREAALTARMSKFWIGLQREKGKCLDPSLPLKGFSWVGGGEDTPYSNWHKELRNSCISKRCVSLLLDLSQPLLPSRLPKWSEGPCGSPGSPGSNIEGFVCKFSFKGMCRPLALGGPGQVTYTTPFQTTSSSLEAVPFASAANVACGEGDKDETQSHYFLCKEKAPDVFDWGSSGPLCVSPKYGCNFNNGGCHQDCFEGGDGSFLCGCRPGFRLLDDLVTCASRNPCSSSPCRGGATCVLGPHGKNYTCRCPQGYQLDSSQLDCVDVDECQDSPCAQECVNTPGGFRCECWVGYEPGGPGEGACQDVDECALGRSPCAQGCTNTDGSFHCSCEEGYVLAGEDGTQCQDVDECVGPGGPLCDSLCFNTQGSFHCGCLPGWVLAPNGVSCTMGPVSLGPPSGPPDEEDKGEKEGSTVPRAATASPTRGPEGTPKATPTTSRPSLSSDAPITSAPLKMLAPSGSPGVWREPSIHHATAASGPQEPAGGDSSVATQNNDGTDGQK
Procedure: His-tagged human CD93 was coated onto a 96 well plate at 1 μg/mL in 1×PBS overnight at 4° C. The plate was washed with ELISA wash buffer (Boston BioProduct, Inc.) and the wells were blocked with ELISA blocking buffer for 1 hour at 37° C. […] The plate was washed with ELISA wash Buffer. […] The plate was washed with ELISA wash Buffer. HRP substrate was added for indirect detection of the antibodies binding to CD93.

[3] = target: T1, Human CD93 on cells (human CD93 …); assay: flow cytometry titration on KG1a cells; column head printed kd, unit from the axis log (concentration (M))
[4] = target: T1, Human CD93 on cells (human CD93 …); assay: flow cytometry titration on U937 cells; column head printed kd, unit from the axis log (concentration (M))
[5] = target: T2, Human CD93 recombinant protein (Sino …); assay: summary table, column ELISA (hCD93)
[6] = target: T2, Human CD93 recombinant protein (Sino …); assay: ELISA, hCD93-His coated, OD450
Procedure: His-tagged human CD93 was coated onto a 96 well plate at 1 μg/mL in 1×PBS overnight at 4° C. The plate was washed with ELISA wash buffer (Boston BioProduct, Inc.) and the wells were blocked with ELISA blocking buffer for 1 hour at 37° C. Purified antibodies were serially diluted in ELISA blocking buffer (Boston BioProduct, Inc.) and incubated on the receptor for 1 hour at 37° C. The plate was washed with ELISA wash Buffer. […] The plate was washed with ELISA wash buffer. HRP substrate was added for indirect detection of the antibodies binding to CD93.

[7] = target: T2, Human CD93 recombinant protein (Sino …); assay: BLI (Octet QKe), biotinylated human CD93 on streptavidin biosensors
Procedure: The binding affinity of anti-CD93 antibodies was determined with bio-layer interferometry using Octet QKe (Fortebio). […] Human CD93 recombinant protein (Sino Biological Inc, Catalog #12589-H08H) was biotinylated using EZ-LINK NHS-PEG4 biotin (Thermo Fisher Scientific). Streptavidin biosensors (Fortebio) were used to load biotinylated CD93 protein (300 seconds in 5 μg/ml). Baseline was stabilized for 60 seconds in 1×kinetics buffer (Fortebio) before anti-CD93 antibodies, at a serial dilution, were allowed to associate for 300 seconds with captured protein. Then the sensors were dissociated in 1× kinetics buffer for 600 seconds. […] (FIG. 41).

[8] = target: T2, Human CD93 recombinant protein (Sino …); assay: summary table, column Octet (hCD93)
[9] = target: T1, Human CD93 on cells (human CD93 …); assay: flow cytometry on human CD93 expressing CHO cells
Procedure: Human CD93 expressing CHO cells were detached by incubation with TrypLE reagents (Thermo Fisher), which preserves the integrity of CD93 on the cell surface. Then the cells were incubated with serially diluted anti-CD93 antibodies for 30 minutes in 4° C. After washing by FACS buffer, the cells were incubated with Alexa Fluor 647 conjugated anti-human IgG (Jackson ImmunoResearch) for 30 minutes in 4° C. After washing by FACS buffer twice, the samples were acquired in NovoCyte Flow Cytometer and analyzed by NovoExpress software.

[10] = target: T2, Human CD93 recombinant protein (Sino …); assay: ELISA, His-tagged human CD93 coated, OD450; remark: listed apart in the source
Procedure: His-tagged human CD93 was coated onto a 96 well plate at 1 μg/mL in 1×PBS overnight at 4° C. The plate was washed with ELISA wash buffer (Boston BioProduct, Inc.) and the wells were blocked with ELISA blocking buffer for 1 hour at 37° C. […] The plate was washed with ELISA wash Buffer. HRP-conjugated anti-human Fc antibody was incubated for 1 hour at 37° C. The plate was washed with ELISA wash Buffer. HRP substrate was added for indirect detection of the antibodies binding to CD93.

[11] = target: T1, Human CD93 on cells (human CD93 …); assay: flow cytometry blocking assay, CHO-hCD93 cells, antibody 50 ug/ml then MMRN2 0.5 ug/ml, APC-A
Procedure: (§1) After incubation, the cells were washed with FACS buffer and incubated with anti-His conjugated APC or streptavidin conjugated APC at a ratio of 1:500 for 30 minutes at 4° C. After washing with FACS buffer twice, the samples were analyzed and data acquired in NovoCyte Flow.

[12] = target: T2, Human CD93 recombinant protein (Sino …); assay: BLI (Octet), human CD93; sheet prints Anti-Penta-HIS(HIS1K) biosensor
[13] = target: T1, Human CD93 on cells (human CD93 …); assay: summary table, column FACS (HUVEC cells)
[14] = target: T1, Human CD93 on cells (human CD93 …); assay: flow cytometry blocking assay, CHO-hCD93 cells, antibody 50 ug/ml then MMRN2 0.1 ug/ml, APC-A
Procedure: as §1

[15] = target: T3, Mouse CD93 on cells (mouse CD93 expressing CHO cells; mouse CD93 expressing HEK cells) (mouse, UniProt O89103 23-644); assay: summary table; method and form of mouse CD93 not given
T3 construct: whole, on cells; also called mCD93 HEK; CD93-HEK cells
T3 sequence (looked up): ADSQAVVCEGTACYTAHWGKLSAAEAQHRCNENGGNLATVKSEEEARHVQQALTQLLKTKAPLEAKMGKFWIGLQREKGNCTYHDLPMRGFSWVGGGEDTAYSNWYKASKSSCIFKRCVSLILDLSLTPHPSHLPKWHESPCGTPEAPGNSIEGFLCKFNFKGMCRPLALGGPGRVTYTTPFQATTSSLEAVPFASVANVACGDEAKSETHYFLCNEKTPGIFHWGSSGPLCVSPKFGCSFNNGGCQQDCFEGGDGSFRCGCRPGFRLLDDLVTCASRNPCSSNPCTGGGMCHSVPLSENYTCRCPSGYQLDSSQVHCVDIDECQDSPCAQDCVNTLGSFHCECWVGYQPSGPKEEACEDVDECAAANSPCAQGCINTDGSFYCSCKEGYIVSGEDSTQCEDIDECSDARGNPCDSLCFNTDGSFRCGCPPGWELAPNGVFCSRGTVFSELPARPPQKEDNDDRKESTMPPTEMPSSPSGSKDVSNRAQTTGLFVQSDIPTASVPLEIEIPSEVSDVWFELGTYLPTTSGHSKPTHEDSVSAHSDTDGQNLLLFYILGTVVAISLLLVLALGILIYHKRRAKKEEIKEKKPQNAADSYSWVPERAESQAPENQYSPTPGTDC

[16] = target: T1, Human CD93 on cells (human CD93 …); assay: flow cytometry, CHO-hCD93 cells, APC-A
[17] = target: T1, Human CD93 on cells (human CD93 …); assay: summary table, column FACS (CHO-hCD93 cells)

- M2 gate, % of cells [1]: 93%
- EC50 [2]: 0.213 nM
- Kd [3]: 0.0772 nM and 0.0952 nM
- Kd [4]: 0.104 nM and 0.0944 nM
B1: humanized 17B10 (VH3VL3, i.e., H3L3) with a chimeric Fc containing mouse IgG1 CH2 and CH3 domains and human CH1 domains (antibody, V domains shown)
VH: QVQLVQSGPEVKKPGESLKISCKASGYAFSSYWLNWVRQMPGKGLEWMGRIYPGDGDTDYNGKFKGQVTISADKSSGTAYLQLSSLKASDTAVYFCVRGDGYWAMDYWGQGTLVTVSS
VL: DIVMTQSPDSLAVSLGERATINCRFSKSLLHSNGITYLYWYQQKPGQPPKLLIYQMSNLASGVPDRFSGSGSGTDFTLTISSLQAEDVAVYYCAQNLELPWTFGGGTKLEIK
notes: Human CH1, mouse IgG1 CH2 and CH3; also called h17B10-H3L3; humanized 17B10-mFc

- EC50 [5]: 0.041 nM
- EC50 [6]: 0.022 nM
- Kd [7]: 0.135 nM
- koff [7]: 2.93e-05 s⁻¹
- kon [7]: 217000 M⁻¹ s⁻¹
- Kd [8]: 0.135 nM
- EC50 [9]: 0.24 nM
- EC50 [10]: 0.041 nM
B2: 16E4-hIgG1 (recombinant chimeric 16E4) (antibody, V domains shown)
VH: QVQLQQPGAELVKPGASVKLSCKASGYTFTSYWMHWVKQRPGQGLEWIGEIDPSASYTYYNQKFKGKATLTVDKSSSTAYMQLSSLTSEDSAVYYCARSVYYGNKYFDVWGAGTTVTVSS
VL: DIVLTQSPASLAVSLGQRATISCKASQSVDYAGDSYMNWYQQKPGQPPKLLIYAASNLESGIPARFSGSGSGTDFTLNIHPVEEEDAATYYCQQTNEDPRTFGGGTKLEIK
notes: the same paragraph once calls it 'humanized'; also called recombinant 16E4

- EC50 [5]: 0.0667 nM
- EC50 [6]: 0.0667 nM
- Kd [8]: 0.493 nM
- M3 gate, % of cells positive for MMRN2 after the antibody [11]: 9.93%
- Kd [12]: 1.26 nM
- koff [12]: 0.000478 s⁻¹
- kon [12]: 381000 M⁻¹ s⁻¹
- EC50 [13]: 2.94 nM
- M3 gate, % of cells positive for MMRN2 after the antibody [14]: 12.2%
- binding result [15]: no binding
- M3 gate, % of cells [16]: 96.3%
- EC50 [17]: 0.21 nM
B3: 7F3 (hybridoma) (antibody, IgG1, V domains shown)
VH: QVQLQQSGADLVRPGASVKLSCKASGYTFTDYEMHWVKQTPVYGLEWIGGIDPETGDTAYNQNFKGKATLTADKSSSAAYMELRSLTSEDSAVYYCTNYGNLYYYAMDYWGQGTSVTVSS
VL: ENVLTQSPAIMSASPGEKVTMTCRASSSVSSSYLHWYQQKSGASPKLWIYSTSNLAFGVPARFSGSGSGTSYSLTISSVEAEDAATYYCQQYSGYPLTFGSGTKLEIK
notes: also called 7F3 mAb; 7F3 mIgG1
